Measured values taken from article PMC6685440.

Target: Heavy meromyosin (HMM)
Assay: far-Western, overlay or dot blot

| fold binding against wild type [fold] | Binder |
| --- | --- |
| 2 | GST-tagged NH2-terminal region of slow myosin binding protein-C (Pro/Ala-rich motif, Ig C1 and M-motif), Y247H (domain or fragment) MPEPTKKEENEVPAPAPPPEEPSKEKEAGTTPAKDEEEVSPPSALPPGLGSRALERKDSDWTLVETPPGEEQAKQNANSQLSILFIEKPQGGTVKVGEDITFIAKVKAEDLLRKPTIKWFKGKWMDLASKAGKHLQLKETFERHSRVYTFEMQIIKAKDNFAGNYRCEVTYKDKFDSCSFDLEVHESTGTTPNIDIRSAFKRSGEGQEDAGELDFSGLLKRREVKQQEEEPQVDVWELLKNAKPSEHEKIAFQYGITDLRGMLKRLKRMRREEKKSAAFAKILD |
| 3.5 | GST-tagged NH2-terminal region of slow myosin binding protein-C (Pro/Ala-rich motif, Ig C1 and M-motif), E248K (domain or fragment) MPEPTKKEENEVPAPAPPPEEPSKEKEAGTTPAKDEEEVSPPSALPPGLGSRALERKDSDWTLVETPPGEEQAKQNANSQLSILFIEKPQGGTVKVGEDITFIAKVKAEDLLRKPTIKWFKGKWMDLASKAGKHLQLKETFERHSRVYTFEMQIIKAKDNFAGNYRCEVTYKDKFDSCSFDLEVHESTGTTPNIDIRSAFKRSGEGQEDAGELDFSGLLKRREVKQQEEEPQVDVWELLKNAKPSEYKKIAFQYGITDLRGMLKRLKRMRREEKKSAAFAKILD |
